Data on 1 sequence can be found in article PMC2841647 (PLoS ONE, 2010).

Data set [1] addresses T1, native TrkB receptors in cortical neurons (Mus musculus, UniProt P15209).
T1 construct: cortical neurons naturally express TrkB receptors; endogenous in cells; host or cells: primary cortical neurons from E16 mouse embryos
As to the kind of experiment: KIRA-ELISA (TrkB tyrosine phosphorylation) in primary cortical neurons. The format is cell-based. To be noted: cortical neurons, with or without 4 nM BDNF. An excerpt: The human recombinant TrkB receptor was fluorescently tagged at its C-terminus with the Enhanced cyan fluorescent protein (rhTrkB-ECFP) by cloning the full human TrkB sequence (kindly provided by G. M. Brodeur) into the pECFP-N1 expression vector (Clontech). For inducible expression, rhTrkB-ECFP was subcloned into the tetracycline-responsive (TetOn) vector pTRE2 (Clontech). Chinese Hamster Ovary cells stably expressing rhTrkB-ECFP (TetOn-rhTrkB cells), were produced by transfection of the pTRE2-rhTrkB-ECFP plasmid into CHO-K1 TetOn cells (Clontech) followed by clone selection in 0.25 mg/ml hygromycin B (Invitrogen) and 0.1 mg/ml geneticin (G418; Invitrogen). Resistant cells were selected based on both fluorescence intensity and KIRA-ELISA profile after an overnight incubation in presence of 1000 ng/ml doxycycline (Clontech). Cortical neurons were prepared and cultured from E16 mouse embryos as described previously. The nnr5 PC12-TrkA, nnr5 PC12-TrkB and nnr5 PC12-TrkC cells (kindly provided by M. V. Chao) are NGF non-responding mutant PC12 cells stably transfected with TrkA, TrkB and TrkC cDNA, respectively.
TrkB activity was quantified using the previously described KIRA-ELISA assay with slight modifications. Cortical neurons were seeded on polyornithin-coated flat-bottom 96-well culture plates (12×10^4 cells per well) and cultured eight days at 37°C in 5% CO2. TetOn-rhTrkB cells were seeded on flat-bottom 96-well culture plates (4×10^4 cells per well) and incubated overnight with 1000 ng/ml doxycycline (Figs. S1,S2) except when indicated. Fluorescence levels in TetOn-rhTrkB cells were verified before each assay. […] Assay was stopped by removing the medium on ice and membranes were solubilized using KIRA-ELISA solubilization buffer (NaCl 150 mM, Hepes 50 mM, Triton X-100 0.5%, thimerosal 0.01%, sodium orthovanadate 2 mM, supplemented with a cocktail of protease inhibitors) for 1 h at room temperature. Solubilized membranes were transferred for 2 h at room temperature onto ELISA microtiter plate (Nunc Maxisorp) pre-coated overnight at 4°C with appropriate antibodies [polyclonal anti-GFP (1∶5000, Clontech) for TetOn-rhTrkB, polyclonal anti-TrkB (1 µg/ml, Upstate) for cultured neurons and brain slices, for phosphorylation assays; monoclonal anti-GFP (1∶3000, Chemicon) for TetOn-rhTrkB, monoclonal anti-TrkB (1∶1000, BD Biosciences) for cultured neurons and brain slices, for total TrkB quantification]. […] Absorbance was read at 450 nm after addition of 3,3′,5′,5-tetramethyl-benzidine substrate (Sigma) and acidification with 1N hydrochloric acid.
Concentration-response and competition curves were obtained using an iterative least-squares method derived from that of Parker & Waud (1971). […] Concentration-response curves and Eadie-Hofstee plots were analyzed using two-way ANOVA. Significance over time in locomotor activity studies was given using two-way ANOVA followed by Bonferroni's post-hoc test. […] One-way ANOVA followed by post-hoc Dunnett's test was used to evaluate statistical significance compare to saline group in EPM and FST procedures. n represents the number of independent experiments.

Data set [2] has as its system mice. As to the kind of experiment: Forced swim test (FST). Format: in vivo, mouse. To be noted: acute treatment. As for the experimental part: (§1) Mice were treated as described above before being subjected to behavioral studies. Predictive estimation for anxiolytic properties of tat-cyclotraxin-B was assessed using open field and elevated plus-maze (EPM). Antidepressant-like action of tat-cyclotraxin-B was assessed with the forced-swim test (FST). Effects of acute treatment with tat-cyclotraxin-B on spontaneous locomotion, exploration and reactivity to a novel open field was assessed in plexiglas activity chambers (Med Associates; 45×45×31 cm). Mice were placed into the center of the open field, and activity was recorded for 30 min. Testing took place under bright ambient light conditions to increase the anxiety component of the center areas of the field (defined as the central 15×15 cm portion). Mice subjected to EPM received a double 90-interval i.v. injection of tat-cyclotraxin-B or saline buffer before being placed on the platform of the EPM and assessed for 5 min (26×5×36 cm). The diazepam control group consisted of saline buffer double-treated mice that further received a 30-min i.p. injection of diazepam (1 mg/kg). Mice were assessed for number of entries and amount of time spent in open versus closed arms. The FST procedure was applied to treated mice as described by Porsolt et al. (see ref. [60]). Mice were dropped individually into glass cylinder (height, 25 cm; diameter, 10 cm) containing 10 cm water height, maintained at 23–25°C. Animals were tested for a total of 6 min. The total time of swimming, the number of climbing attempts and the time of immobility was recorded during the last 4 min of the session, after 2 min of habituation. The paroxetine control group consisted of saline buffer double-treated mice that further received a 30-min i.p. injection of paroxetine (2 mg/kg). Behaviors were recorded on videotape and scored blind.

Data set [3] deals with mice. Kind of data set: Open field. Format: in vivo, mouse. The procedure: as §1, with “The FST procedure was applied to treated mice as described by Porsolt et al. (see ref. [60]). Mice were dropped individually into glass cylinder (height, 25 cm; diameter, 10 cm) containing 10 cm water height, maintained at 23–25°C. Animals were tested for a total of 6 min.” left out, “The paroxetine control group consisted of saline buffer double-treated mice that further received a 30-min i.p. injection of paroxetine (2 mg/kg).” left out

T1 sequence (P15209 32-821): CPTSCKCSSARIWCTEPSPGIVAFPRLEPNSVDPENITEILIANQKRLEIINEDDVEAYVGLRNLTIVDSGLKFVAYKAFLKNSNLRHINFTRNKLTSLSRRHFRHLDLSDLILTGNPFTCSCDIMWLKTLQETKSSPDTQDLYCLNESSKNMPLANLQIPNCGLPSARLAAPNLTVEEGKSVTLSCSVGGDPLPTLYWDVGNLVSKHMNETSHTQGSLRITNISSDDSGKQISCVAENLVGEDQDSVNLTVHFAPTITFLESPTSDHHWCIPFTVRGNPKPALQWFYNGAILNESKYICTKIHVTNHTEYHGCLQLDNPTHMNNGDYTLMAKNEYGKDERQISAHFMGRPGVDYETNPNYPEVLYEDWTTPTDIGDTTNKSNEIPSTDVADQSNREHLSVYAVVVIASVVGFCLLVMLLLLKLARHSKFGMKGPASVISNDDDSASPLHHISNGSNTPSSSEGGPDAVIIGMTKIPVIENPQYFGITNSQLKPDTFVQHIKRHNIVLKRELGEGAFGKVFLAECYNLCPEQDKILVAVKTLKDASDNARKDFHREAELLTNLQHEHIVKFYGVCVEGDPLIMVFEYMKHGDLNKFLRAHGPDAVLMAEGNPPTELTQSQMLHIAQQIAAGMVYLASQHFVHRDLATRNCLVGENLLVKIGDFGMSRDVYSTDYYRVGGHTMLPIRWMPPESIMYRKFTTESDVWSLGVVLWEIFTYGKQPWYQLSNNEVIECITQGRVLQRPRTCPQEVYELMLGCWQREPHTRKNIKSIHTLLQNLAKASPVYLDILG

Consider “YGRKKRRQRRRCNPMGYTKEGC [tat-cyclotraxin-B]”, for which the “TrkB inhibition compared with cyclotraxin-B” value in data set [1] is recorded as “similarly to cyclotraxin-B”. For the same sequence, the FST swimming capabilities entry in the data set on mice [2] is “not affected”. In the data set on mice [2] (vs saline), the FST climbing attempts result is “not observed” and the “FST time of immobility” value was “not observed”. Moreover, the “locomotor activity in open field” value with mice [3] (30 min) was “did not show any alterations”. For the same sequence, the “time in the center compartment of open field” value in the data set with mice [3] (compared to saline controls) is given as “significantly more time”.
